Laboratory results reported in patent publication US20190023809A1, “ANTI-NICOTINAMIDE PHOSPHORIBOSYLTRANSFERASE ANTIBODY GENES AND METHODS OF USE THEREOF” (The Children's Mercy Hospital, priority 2015, published 2019).

How the values were obtained:
[1] = cited from earlier work
CIA = CIA mice; cited from earlier work
SP-B = SP-B expression in H441 cells pretreated with FK866, without or with TNF-α (western blot); assay type: cell-based, human
Protocol: FIG. 21 illustrates NAMPT inhibited SP-B expression via both its nonenzymatic and enzymatic activity. (A) H441 cells were transfected with either pCAGGS, pCAGGS-hNAMPT or pCAGGS-H247E. Cell lysate of NAMPT (10 μg), SP-B (30 μg) and GAPDH (10 μg) proteins were detected by western blot. Protein bands were quantified by densitometry using image J, and NAMPT levels (B) and SP-B levels (C) were normalized to GAPDH levels. Values are means±SD of 3 independent experiments. *p<0.05 vs. pCAGGS cells; #p<0.05 vs pCAGGS-hNAMPT cells. (D) H441 cells were pretreated with different doses of FK866 for 6 h before treatment without or with TNF-α (25 ng/ml) for 24 hours. Cell lysate of NAMPT (10 μg), SP-B (30 μg) and GAPDH (10 μg) proteins were detected by western blot. Protein bands were quantified by densitometry using image J, and NAMPT levels (E) and SP-B levels (F) were normalized to GAPDH levels. Values are means±SD of 3 independent experiments. *p<0.05 vs cells without FK866 or rhTNF-α treatment. #p<0.05 vs cells pretreated with FK866 but without rhTNF-α treatment;
This example determined that NAMPT inhibits SP-B expression mainly via its nonenzymatic activity and partly via its enzymatic activity. […]

[2] = Cell culture experiments: cell death; assay type: cell-based
Description: (§1) In one embodiment of the present disclosure, as best shown in FIG. 1A, the cDNA for each single-chain variable fragment (scFv) antibody was cloned, including a histidine tag on the 3′ end, into the pCAGGS expression vector. The VH and VL fragments for each scFv are separated by a (G4S)3 linker and encode proteins of 247 and 249 amino acids, respectively for NAMPT-scFv1 (antibody 1 or Ab1) and scFv2 (antibody 2 or Ab2) (FIG. 1B). To test the anti-NAMPT ability of each construct, MTS assays were performed in transfected 3T3-L1 (ATCC CL-173™) and RAW 264.7 (ATCC® TIB-71™) cells.

macrophage cell lines = test: MTS proliferation assay in transfected macrophage cell lines (RAW 264.7); assay type: cell-based, mouse; settings: data not shown
Description: as §1
We expressed and purified recombinant mouse NAMPT protein and obtained two human against mouse NAMPT antibody gene clones, termed NAMPT-scFv1 (Ab1) and -scFv2 (Ab2), by screening a HuScL-2™ Phage Display Naïve Human scFv Library (www.creative-biolabs.com/). We cloned the cDNAs for each scFv, including a histidine-tag on the 3′ end, into the pCAGGS expression vector. The VH and VL fragments for each scFv are separated by a (G4S)3 linker and encode proteins of 247 and 249 amino acids, respectively for NAMPT-scFv1 and -scFv2. To test the anti-NAMPT ability of each construct, we performed MTS assays in transfected 3T3-L1 (ATCC® CL-173™) and RAW 264.7 (ATCC® TIB-71™) cells. […] To increase the specificity of these constructs we generate a hetero-dimer and a hetero-tetramer using established procedures. […]

3T3-L1 cells = test: MTS / CellTiter 96 AQueous One cell proliferation assay in transfected 3T3-L1 cells; assay type: cell-based, mouse; settings: for decreased proliferation as compared to the pCAGGS control population: fibroblasts, FIG. 1C; for proliferation of mouse 3T3: transfected cells, preliminary result
Protocol: FIG. 1C is a graphic representation of the results of assay of cell proliferation of 3T3-L1 cells transfected with scFV1 and scFv2 or pCAGGS control. After 72 h, cell proliferation was assayed by CellTiter 96® AQueous One Solution Cell Proliferation Assay (Promega, cat #G3582). Values are means±SD, N=12, * p≤0.001;
as §1
We expressed and purified recombinant mouse NAMPT protein and obtained two human against mouse NAMPT antibody gene clones, termed NAMPT-scFv1 (Ab1) and -scFv2 (Ab2), by screening a HuScL-2™ Phage Display Naïve Human scFv Library (www.creative-biolabs.com/). We cloned the cDNAs for each scFv, including a histidine-tag on the 3′ end, into the pCAGGS expression vector. The VH and VL fragments for each scFv are separated by a (G4S)3 linker and encode proteins of 247 and 249 amino acids, respectively for NAMPT-scFv1 and -scFv2. To test the anti-NAMPT ability of each construct, we performed MTS assays in transfected 3T3-L1 (ATCC® CL-173™) and RAW 264.7 (ATCC® TIB-71™) cells. […] To increase the specificity of these constructs we generate a hetero-dimer and a hetero-tetramer using established procedures. The hetero-dimer [scFv1-scFv2], also called a di-body, is separated by a GGSSRSSSSGGGGSGGGG linker. The hetero-tetramer, also called a tetra-body, consists of two dimers [scFv1-scFv2]2 joined by the HIV1 P21 capsid protein linker, GATPQDLNTML. The P21 linker is an epitope for the murine monoclonal CB4-1 antibody. […] Thus, we utilize the CB4-1 antibody and nickel-columns (His-Tag) to manipulate and purify our recombinant scFv antibodies. We enhance the specificity and tertiary structures of the di-body and tetra-body by modifying the type and length of the linker sequences. Their antisense clone of NAMPT-scFv1 and -scFv2 is used as controls. Since similar effects in in vitro assay were observed, only NAMPT-scFv1 and its antisense clone are used to prepare the constructs under the control of either the human MRP8 promoter or mouse MPO promoter for tissue specific expression in neutrophils or neutrophils and monocytes, respectively.

human a549 cell = test: Proliferation of human a549 cell (data not shown); assay type: cell-based
cell NAD synthesis = test: NAD synthesis by transfected 3T3-L1 cells (Amplite Fluorimetric NAD/NADH Ratio Assay Kit); assay type: cell-based, mouse
Protocol: FIG. 1D is a graphic representation of the results of assay of NAD synthesis by 3T3-L1 cells transfected with scFv1 or pCAGGS control. After 72 h NAD synthesis was measured by Amplite™ Fluorimetric NAD/NADH Ratio Assay Kit (AAT Bioquest®, Inc. prod. number 15263). Values are means±SD, N=4, p≤0.005. Ab1, antibody 1; Ab2, antibody 2;
as §1

Molecule: O=C(/C=C/c1cccnc1)NCCCCC1CCN(C(=O)c2ccccc2)CC1 [FK866]
- side effect in humans [1]: thrombocytopenia
- severity and progression of arthritis (CIA): effectively reduce
- rescue of TNF-α induced inhibition of SP-B (SP-B; FK866 6 h then TNF-α 25 ng/ml 24 hours): did not significantly rescue
- SP-B expression (SP-B; FK866 pretreatment 6 h): increased

B1: Ab1: anti-NAMPT single-chain variable fragment antibody clone, 247 amino acids, SEQ ID NO 1/2, in pCAGGS expression vector (protein, listed as Homo sapiens)
scFv: MEVQLLESGGGLVQPGGSLRLSCAASGFTFSSYAMSWVRQAPGKGLEWVSVINVPGNRTSYADSVKGRFTISRDNSKNTLYLQMNSLRAEDTAVYYCAKKTRRFDYWGQGTLVTVSSGGGGSGGGGSGGGGSTDIQMTQSPSSLSASVGDRVTITCRASQSISSYLNWYQQKPGKAPKLLIYGASVLQSGVPSRFSGSGSGTDFTLTISSLQPEDFATYYCQQRVRSPATFGQGTKVEIKRHHHHHH
modifications: (32)..(36) CDR1; (51)..(70) CDR2 scFv1; (99)..(105) CDR3 scFv1; (157)..(167) CDR4; (183)..(189) CDR5 scFv1; (224)..(230) CDR6 scFv1; (242)..(247) Histidine Tag
- cell death [2]: induce cell death
- proliferation of macrophage cell lines (macrophage cell lines): inhibit proliferation
- decreased proliferation as compared to the pCAGGS control population (3T3-L1 cells): about 50%
- proliferation of mouse 3T3 (3T3-L1 cells): inhibit proliferation
- proliferation of human a549 cell (human a549 cell): inhibited proliferation
- NAD synthesis, FIG. 1D values (Avg±SD) (cell NAD synthesis; 3T3-L1 cells transfected, after 72 h, pCAGGS control, N=4): 68.3%+10.4
- cell NAD synthesis (cell NAD synthesis; transfected cells): inhibited cell NAD synthesis

B2: Ab2: anti-NAMPT single-chain variable fragment antibody clone, 249 amino acids, SEQ ID NO 3/4, in pCAGGS expression vector (protein, listed as Homo sapiens)
scFv: MEVQLLESGGGLVQPGGSLRLSCAASGFAFSSYAMSWVRQAPGKGLEWVSNISGRGAKTTYADSVKGRFTISRDNSKNTLYLQMNSLRAEDTAVYYCAKTYLVFDYWGQGTLVTVSSGGGGSGGGGSGGGGSTDIQMTQSPSSLSASVGDRVTITCRASQSISSYLNWYQQKPGKAPKLLIYRASSLQSGVPSRFSGSGSGTDFTLTISSLQPEDFATYYCQQISATPTTFGQGTKVEIKRAAHHHHHH
modifications: (32)..(36) CDR1; (41)..(60) CDR2 scFv2; (90)..(96) CDR3 scFv3; (108)..(122) 15-mer linker sequence; (147)..(157) CDR4; (173)..(180) CDR5 scFv2; (214)..(220) CDR6 scFv2; (234)..(239) Histidine Tag
- cell death [2]: induce cell death
- proliferation of macrophage cell lines (macrophage cell lines): inhibit proliferation
- cell proliferation, FIG. 1C values (Avg±SD) (3T3-L1 cells; 3T3-L1 cells transfected, after 72 h, pCAGGS control, N=12): 49.8%+4.6
- decreased proliferation as compared to the pCAGGS control population (3T3-L1 cells): about 50%
- proliferation of mouse 3T3 (3T3-L1 cells): inhibit proliferation
- proliferation of human a549 cell (human a549 cell): inhibited proliferation
